From ChEMBL document CHEMBL1126199, “(R)-(-)- and (S)-(+)-adenallene: synthesis, absolute configuration, enantioselectivity of antiretroviral effect, and enzymic deamination” (J Med Chem, 1992)
Where “and” joins values, the source holds several entries; their conditions need not be identical. Equal values may be shown once.

Substrate: Nc1ncnc2c1ncn2C=C=CCO
Assay: Vmax by adenosine deaminase

B1: Adenosine deaminase (Bos taurus), P56658 (protein)
chain: MAQTPAFNKPKVELHVHLDGAIKPETILYYGRKRGIALPADTPEELQNIIGMDKPLSLPEFLAKFDYYMPAIAGCREAVKRIAYEFVEMKAKDGVVYVEVRYSPHLLANSKVEPIPWNQAEGDLTPDEVVSLVNQGLQEGERDFGVKVRSILCCMRHQPSWSSEVVELCKKYREQTVVAIDLAGDETIEGSSLFPGHVKAYAEAVKSGVHRTVHAGEVGSANVVKEAVDTLKTERLGHGYHTLEDATLYNRLRQENMHFEVCPWSSYLTGAWKPDTEHPVVRFKNDQVNYSLNTDDPLIFKSTLDTDYQMTKNEMGFTEEEFKRLNINAAKSSFLPEDEKKELLDLLYKAYGMPSPASAEQCL
In the case of B1, the Vmax is reported as 0.41 µM/min and 0.52 µM/min.
